Columns and labels:
[1] = molecular target: T1, apoGAD65 (glutamate decarboxylase GAD65, residues 84-585, purified without added PLP) (human, UniProt Q05329); assay: HDX-MS
[2] = molecular target: T1, apoGAD65 (glutamate decarboxylase …); assay: SPR

T1 sequence (Q05329 84-585): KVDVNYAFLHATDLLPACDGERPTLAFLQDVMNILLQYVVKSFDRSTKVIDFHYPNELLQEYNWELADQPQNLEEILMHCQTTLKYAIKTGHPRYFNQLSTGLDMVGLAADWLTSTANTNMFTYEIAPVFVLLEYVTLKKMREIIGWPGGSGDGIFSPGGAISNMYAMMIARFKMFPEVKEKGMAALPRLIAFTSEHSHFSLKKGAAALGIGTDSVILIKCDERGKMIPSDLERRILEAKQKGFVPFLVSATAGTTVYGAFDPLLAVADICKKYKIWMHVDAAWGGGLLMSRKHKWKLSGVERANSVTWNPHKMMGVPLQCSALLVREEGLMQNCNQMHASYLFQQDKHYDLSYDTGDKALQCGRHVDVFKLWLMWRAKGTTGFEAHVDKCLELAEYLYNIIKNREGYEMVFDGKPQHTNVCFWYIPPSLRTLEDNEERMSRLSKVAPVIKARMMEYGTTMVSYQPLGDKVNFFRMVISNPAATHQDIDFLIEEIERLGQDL

| binding result [1] | binding result [2] | Binder |
| --- | --- | --- |
| binds | – | b96.11 Fab (recombinant Fab based on the human APS-2-associated autoantibody b96.11) (Fab, V domains shown) VH: EVQLVESGGGLVQPGRSLRLSCSASGFTFGDYAMSWFRLAPGKGLEWVGLIKSRAIDGTPQYAASVKGRFTISRDDSNSIAYLQMNSLTTEDTAIYYCARDFYDFWNEFSHRTFDFWGQGTLVTVSS VL: QSALTQPASASGSPGQSVTITCTGSSSDVGGYKYVSWYQHHPGKAPKLMIYEVSKRPSGVPDRFSGSKSGNMASLTVSGLQAEDEADYYCSSYAGSYNFYVFGNGTKVTVL |
| – | binds | b96.11 IgG (purified monoclonal b96.11 IgG antibody) (antibody, V domains shown) VH: EVQLVESGGGLVQPGRSLRLSCSASGFTFGDYAMSWFRLAPGKGLEWVGLIKSRAIDGTPQYAASVKGRFTISRDDSNSIAYLQMNSLTTEDTAIYYCARDFYDFWNEFSHRTFDFWGQGTLVTVSS VL: QSALTQPASASGSPGQSVTITCTGSSSDVGGYKYVSWYQHHPGKAPKLMIYEVSKRPSGVPDRFSGSKSGNMASLTVSGLQAEDEADYYCSSYAGSYNFYVFGNGTKVTVL |
